Experimental data as given in paper PMC11662928, “L1-ORF1p nucleoprotein can rapidly assume distinct conformations and simultaneously bind more than one nucleic acid”.

What was measured:
ORF1p WT (111p) [1] = target: ORF1p WT (111p) (UniProt Q9UN81); assay: optical tweezers; conditions: 30 pN; K* = compact and de-compact states equally occupied, not a simple Kd; Binding buffer with 50 mM Na+ (pH and other components not in the material), 21 C (stated for m128p); 8.1 knt ssDNA held at 5-50 pN
[2] = target: m128p (CTD, RRM, 3.5 of 14 CC heptads) (UniProt Q9UN81); assay: optical tweezers (koff/kon); conditions: Binding buffer with 50 mM Na+ (pH and other components not in the material), 21 C (stated for m128p); 8.1 knt ssDNA held at 5-50 pN
m128p (CTD, RRM, 3.5 of 14 CC heptads), sequence (Q9UN81 128-338): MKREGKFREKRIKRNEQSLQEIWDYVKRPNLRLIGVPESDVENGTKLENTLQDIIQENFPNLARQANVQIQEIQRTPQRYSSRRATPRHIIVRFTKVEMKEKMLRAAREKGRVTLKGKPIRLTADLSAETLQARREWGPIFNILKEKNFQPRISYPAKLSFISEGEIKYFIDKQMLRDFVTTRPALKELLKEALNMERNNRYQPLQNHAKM

ORF1p WT (111p) [3] = target: ORF1p WT (111p) (UniProt Q9UN81); assay: optical tweezers (koff/kon); conditions: 30 pN tension, 1 nM ORF1p; Binding buffer with 50 mM Na+ (pH and other components not in the material), 21 C (stated for m128p); 8.1 knt ssDNA held at 5-50 pN
ORF1p WT (111p) [4] = target: ORF1p WT (111p) (UniProt Q9UN81 1-338); assay: confocal fluorescence with optical tweezers; 30 nM ORF1p bound to tethered 8.1 knt ssDNA (ternary complex), 10 and 30 pN; Binding buffer with 50 mM Na+ (pH and other components not in the material), 21 C (stated for m128p); 8.1 knt ssDNA held at 5-50 pN; conditions: protein: recombinant; tags: N-terminal His; chain copies: 3; label: 5' Alexa488; single strand
ORF1p WT (111p) (UniProt Q9UN81 1-338), sequence (Q9UN81 whole entry): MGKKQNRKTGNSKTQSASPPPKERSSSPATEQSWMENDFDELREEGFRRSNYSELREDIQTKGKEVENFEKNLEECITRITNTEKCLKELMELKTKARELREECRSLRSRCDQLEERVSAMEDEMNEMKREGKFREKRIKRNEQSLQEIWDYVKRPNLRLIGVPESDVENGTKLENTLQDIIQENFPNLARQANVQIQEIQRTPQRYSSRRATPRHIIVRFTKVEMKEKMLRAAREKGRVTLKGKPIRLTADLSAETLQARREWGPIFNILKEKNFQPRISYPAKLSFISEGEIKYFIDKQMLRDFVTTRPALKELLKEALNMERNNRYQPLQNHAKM

ORF1p WT (111p) (UniProt Q9UN81), sequence (Q9UN81 whole entry): as above

Molecule | K half (ORF1p WT (111p) [1]) | Kd [2] | Kd (ORF1p WT (111p) [3]) | binding result (ORF1p WT (111p) [4])
8.1 knt ssDNA | 2.8 nM | 1.6 nM | 0.17 nM | 
TTTTTTTTTTTTTTTTTTTT (ssDNA) [Alexa488-dT20] |  |  |  | binds
